Measured values from patent US20060233798A1.

Assays:
[1] = molecular target: CCR5 chemokine receptor on the cell surface (UniProt P51681); experiment: cell-based or functional assay
[2] = molecular target: CCR5 chemokine receptor on the cell surface (UniProt P51681)
[3] = molecular target: CCR5 chemokine receptor on the cell surface (UniProt P51681); experiment: flow cytometry on L1.2-CCR5+ cells, PE anti-mouse IgG
[4] = molecular target: CCR5 chemokine receptor on the cell surface (UniProt P51681); experiment: flow cytometry on mitogen-stimulated PBMC
[5] = molecular target: HIV-1JR-FL envelope glycoproteins gp120/gp41 on HeLa-EnvJR-FL+ cells (HIV-1 JR-FL); experiment: cell-based or functional assay

Chain of UniProt P51681 (P51681 whole entry): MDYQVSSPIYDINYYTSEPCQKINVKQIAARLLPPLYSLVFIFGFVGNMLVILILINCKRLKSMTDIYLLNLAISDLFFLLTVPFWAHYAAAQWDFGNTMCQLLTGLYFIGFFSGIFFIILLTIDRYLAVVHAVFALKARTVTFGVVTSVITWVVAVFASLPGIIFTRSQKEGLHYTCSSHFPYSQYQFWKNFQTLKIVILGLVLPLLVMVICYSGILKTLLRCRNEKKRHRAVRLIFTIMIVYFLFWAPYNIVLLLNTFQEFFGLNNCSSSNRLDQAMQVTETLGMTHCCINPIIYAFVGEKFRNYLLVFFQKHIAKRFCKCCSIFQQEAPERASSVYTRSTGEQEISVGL

Substance | IC50, inhibition of JR-FL entry (luciferase reporter virus, U87MG-CD4+CCR5+ cells) [1] [µg/mL] | IC50, inhibition of cell-cell fusion (RET assay, PM1 and HeLa-EnvJR-FL+ cells) [1] [µg/mL] | K (equal to the IC50) of the median effect fit, inhibition of cell-cell fusion (RET assay) [1] [µg/mL] | IC50 [2] [µg/mL] | % of L1.2-CCR5+ cells stained [3] [%] | % of PBMC stained [4] [%] | % inhibition of entry attained [1] [%] | % inhibition of fusion attained [1] [%] | IC50 for calcium influx inhibition (RANTES-induced, L1.2-CCR5+ cells) [1] [µg/mL] | IC50 for calcium influx inhibition, ratio to the IC50 for 2D7 [1] [fold] | fold difference of m.f.i. against PA9 [4] [fold] | K (equal to the IC50) of the median effect fit, inhibition of env-mediated membrane fusion (RET assay, HeLa-EnvJR-FL+ and PM1 cells) [5] [µg/mL]
anti-CCR5 mAb 2D7 (antibody) | 0.026 | 1.6 | 0.36 | 1.38 | > 90 | > 20 |  |  |  |  |  | 
anti-CCR5 monoclonal antibody PA14 | 0.024 | 1.7 |  | 1.58 | > 90 | > 20 | > 90 | > 90 | 50 | 8 | 7 | 
CD4-IgG2 (from UniProt P01730 26-204; P01730 26-203) (Fc fusion) |  |  |  |  |  |  |  |  |  |  |  | 0.31
T-20 peptide |  |  |  |  |  |  |  |  |  |  |  | 0.017
